From US20230192834A1
Substitutions are numbered along the chain they refer to.

T1: TGFβ3 (R&D Systems)
T1 sequence (P10600 301-412, species assumed, looked up): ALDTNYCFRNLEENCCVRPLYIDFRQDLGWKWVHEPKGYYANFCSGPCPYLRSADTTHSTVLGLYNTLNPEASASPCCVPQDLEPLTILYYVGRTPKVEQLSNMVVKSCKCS

T2: TGFβ2 (R&D Systems)
T2 sequence (P61812 303-414, species assumed, looked up): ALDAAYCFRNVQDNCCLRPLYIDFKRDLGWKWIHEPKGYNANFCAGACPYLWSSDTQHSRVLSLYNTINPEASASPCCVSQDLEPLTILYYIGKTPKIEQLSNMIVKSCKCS

B1: Caninized anti-TGFβ1,2,3 antibody VH4.11 - VL3 (antibody, V domains shown)
VH: QVQLVQSGAEVKKPGSSVKVSCKASGYTFSSNVISWVRQAPGKGLQWVGGVIPIVDIANYAQRFKGRVTLTADTSTNTVYMELSNLRTEDTAVYYCARTLGLVLDAMDYWGQGTLVTVSS
VL: EIVMTQSPASLSLSQEEKVTITCRASQSLGSSYLAWYQQKPGQAPKLLIYGASSRAPGVPSRFSGSGSGTDFSFTISSLEPEDVAVYYCQQYADSPITFGQGTKLEIKR
B2: Caninized anti-TGFβ1,2,3 antibody VH5.10 - VL3 (antibody, V domains shown)
VH: EVQLVESGGDLVKPGGSLRLSCVASGFTFSSNVISWVRQAPGQGLEWMGGVIPIVDIANYAQRFKGRVTLTADTSTNTVYMELSNLRTEDTAVYYCARTLGLVLDAMDYWGQGTLVTVSS
VL: B1 VL
B3: Caninized anti-TGFβ1,2,3 antibody VH4.7 - VL2 (antibody, V domains shown)
VH: B1 VH with L70I, T74E, N77S, V79T, N85S, T88S, R98S
VL: ETVLTQSPGTLSLSPGERATLSCRASQSLGSSYLAWYQQKPGQAPRLLIYGASSRAPGVPARFSGSGSGTDFTLTISSLEPEDFAVYYCQQYADSPITFGQGTKLEIKR
B4: Felinized anti-TGFβ1,2,3 antibody VH2.8 - VL6 (antibody, V domains shown)
VH: QVQLVQSGAEVKKPGSSVKVSCKASGYTFSSNVISWVRQTPAQGFEWMGGVIPIVDIANYAQRFKGRLVLTADTSTNTAYMELRSLKSADTAVYYCASTLGLVLDAMDYWGQGTLVTVSS
VL: QSVLTQPPSVSGSLGQRVTISCRASQSLGSSYLAWYQQVPGRAPRLLIYGASSRAPGIPDRFSGSKSGTSGSLTITGLEADDEADYYCQQYADSPITFGGGTHLTVLG
B5: Caninized anti-TGFβ1,2,3 antibody VH4.5 - VL1 (antibody, V domains shown)
VH: EVQLVESGGDLVKPAGSLRLSCVASGYTFSSNVMSWVRQAPGKGLQWVGYVIPIVDIANYADAVKGRFTISRDNAKNTLYLQMNSLRVEDTAVYYCTRTLGLVLDAMDYWGQGTLVTVSS
VL: B3 VL with V59I, A61D, S78R, K104R
B6: Caninized anti-TGFβ1,2,3 antibody VH3.1 - VL2 (ZTS-122) (antibody, V domains shown)
VH: DVQLVESGGDLVKPGGSLRLTCVASGYTFSSNVMHWVRQAPGKGLQWVAYVIPIVDIAYYADSVKGRFTISIDNSKNTLYLQMNSLKTEDTATYYCARTLGLVLDAMDYWGQGTLVTVSS
VL: B3 VL
B7: Felinized anti-TGFβ1,2,3 antibody VH2.2 - VL3 (antibody, V domains shown)
VH: QVLLVQSGADVRKPGASVKIFCKASGYTFSSNVMHWVRQTPAQGFEWMGSVIPIVDIATYARRFQGRLVLTADTSTNTAYMELRSLKSADTAVYYCARTLGLVLDAMDYWGQGSLVTVSS
VL: EIQMTQSPSSLSASPGDRVTITCRASQSLGSSYLAWYQQKPGKVPKLLIYGASSRAPGVPSRFSGSGSGTDFTLTISSLEPEDAATYYCQQYADSPITFGQGTKLEIKR

Target: T1, TGFβ3 (R&D Systems)
Assay: SPR (Biacore T200), TGFβ amine-coupled to chip, 1:1 fit

| Kd | Binder |
| --- | --- |
| 2.5 nM | B1 |
| 1.5 nM | B2 |
| 1.2 nM | B3 |
| 2.41 nM | B4 |
| 0.475 nM | B5 |
| 1.12 nM | B6 |
| 3.49 nM | B7 |

Target: T2, TGFβ2 (R&D Systems)
Assay: as above

| Kd | Binder |
| --- | --- |
| 5.15 nM | B1 |
| 3.57 nM | B2 |
| 1.99 nM | B3 |
| 1.72 nM | B4 |
| 1.56 nM | B5 |
| 3.37 nM | B6 |
| 2.39 nM | B7 |

Target: TGFβ1 (R&D Systems)
Assay: as above

Sequence of TGFβ1 (R&D Systems) (P01137 279-390): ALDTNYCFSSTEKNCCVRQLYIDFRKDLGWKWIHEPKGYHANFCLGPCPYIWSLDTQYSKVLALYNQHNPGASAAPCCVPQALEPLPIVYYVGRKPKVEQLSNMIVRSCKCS

| Kd | Binder |
| --- | --- |
| 7.14 nM | B1 |
| 5.23 nM | B2 |
| 2.61 nM | B3 |
| 2.95 nM | B4 |
| 2.57 nM | B5 |
| 5.6 nM | B6 |
| 3.31 nM | B7 |

Target: T1, TGFβ3 (R&D Systems)
Assay: cell-based or functional assay

| TGFb3 IC50 (SMAD3 phosphorylation in CMVICs, AlphaLISA) | Binder |
| --- | --- |
| 0.575 µg/mL | B1 |
| 0.113 µg/mL | B2 |
| 0.062 µg/mL | B5 |
| 0.092 µg/mL | B6 |

Target: T2, TGFβ2 (R&D Systems)
Assay: cell-based or functional assay

| TGFb2 IC50 (SMAD3 phosphorylation in CMVICs, AlphaLISA) | Binder |
| --- | --- |
| 16.7 µg/mL | B1 |
| 5.47 µg/mL | B2 |
| 0.81 µg/mL | B3 |
| 0.547 µg/mL | B4 |
| 0.609 µg/mL | B5 |
| 0.508 µg/mL | B6 |
| 1.2 µg/mL | B7 |

Target: TGFβ1 (R&D Systems)
Assay: cell-based or functional assay

| TGFb1 IC50 (SMAD3 phosphorylation in CMVICs, AlphaLISA) | Binder |
| --- | --- |
| 1.01 µg/mL | B1 |
| 0.232 µg/mL | B2 |
| 0.071 µg/mL | B3 |
| 0.969 µg/mL | B4 |
| 0.122 µg/mL | B5 |
| 0.061 µg/mL | B6 |
| 0.24 µg/mL | B7 |
